Experimental findings from US20230046834A1 (BROWN UNIVERSITY, published 2023) are described below.

In assay [1] the target is T1, recombinant human (rh) CTLA4 (human, UniProt P16410 36-161, limits assumed).
T1 construct: Recombinant protein; also called human CTLA4; CD152
T1 sequence (looked up): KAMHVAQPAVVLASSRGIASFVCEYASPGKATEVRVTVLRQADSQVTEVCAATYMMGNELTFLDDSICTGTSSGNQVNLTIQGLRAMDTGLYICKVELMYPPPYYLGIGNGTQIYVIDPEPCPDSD
The assay is described as follows: competitive ELISA. Background: An ELISA detects its analyte on a solid surface through an enzyme-linked reagent.

The target of assay [2] is T2, recombinant human (rh) CHI3L1 (human, UniProt P36222 22-383).
T2 construct: Recombinant protein; also called human CHI3L1; chitinase 3-like-1
T2 sequence (P36222 22-383 limits assumed): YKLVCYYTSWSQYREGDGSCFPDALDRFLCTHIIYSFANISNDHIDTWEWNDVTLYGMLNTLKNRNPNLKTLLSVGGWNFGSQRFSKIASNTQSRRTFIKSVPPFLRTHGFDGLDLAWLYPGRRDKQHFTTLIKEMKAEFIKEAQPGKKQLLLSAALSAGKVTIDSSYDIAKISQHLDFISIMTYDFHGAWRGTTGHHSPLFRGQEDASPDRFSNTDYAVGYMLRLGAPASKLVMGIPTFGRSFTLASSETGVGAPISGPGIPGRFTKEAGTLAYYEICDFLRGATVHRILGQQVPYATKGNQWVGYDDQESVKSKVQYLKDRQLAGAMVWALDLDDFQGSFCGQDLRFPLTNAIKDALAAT
The assay is described as follows: competitive ELISA.

B1: CHI3L1-HC-CTLA4 bispecific antibody (ScFv-CTLA4 attached to the heavy chain of the anti-human CHI3L1 antibody FRG) (bispecific antibody)
chain 1: QVQLQQSGAELMKPGASVKISCRTTGYTFSSYWIEWVKQRPGHGLEWIGEILPGSGSTNCNEKFKGKATFTADTSSNTAYMQLSSLTSEDSAVYYCVRSDDYYDYWGQGTTLTVSSVEGGSGGSGGSGGSGGVDQVQLVQSGAEVVQPGRSLRLSCAASGFTFSSYTMHWVRQAPGKGLEWVTFISYDGNNKYYADSVKGRFTISRDNSKNTLYLQMNSLRSEDTAVYYCARTGWLGPFDYWGQGTLVTVSSGGGGSGGGGSGGGGSGGGGSEIVLTQSPATLSLSPGERATLSCRASQSVGSSYLAWYQQKPGQAPRLLIYGAFSRATGIPARFSGSGSGTDFTLTISSLEPEDFAVYYCQQYGSSPWTFGQGTKVEIK
chain 2: DVLMTQTPLSLPVSLGDQASISCRSSQTIVHSNGNTYLEWYLQKPGQSPKLLIYKVSNRFSGVPDRFSGSGSGTDFTLKISRVEAEDLGVYYCFQGSHVPPTFGGGTKLEIK
Usually Kd stands for the constant that tells how readily two partners part at equilibrium. Regarding B1, in assay [1], the dissociation constant Kd is ~1 nM and the “limit of detection (LOD)” value was found to be 2 ng/mL. Further, in assay [2], the Kd was ~1 nM and the “limit of detection (LOD)” value worked out at 2 ng/mL.

B2: CHI3L1-LC-CTLA4 bispecific antibody (ScFv-CTLA4 attached to the light chain of the anti-human CHI3L1 antibody FRG) (bispecific antibody)
chain 1: QVQLQQSGAELMKPGASVKISCRTTGYTFSSYWIEWVKQRPGHGLEWIGEILPGSGSTNCNEKFKGKATFTADTSSNTAYMQLSSLTSEDSAVYYCVRSDDYYDYWGQGTTLTVSS
chain 2: DVLMTQTPLSLPVSLGDQASISCRSSQTIVHSNGNTYLEWYLQKPGQSPKLLIYKVSNRFSGVPDRFSGSGSGTDFTLKISRVEAEDLGVYYCFQGSHVPPTFGGGTKLEIKVEGGSGGSGGSGGSGGVDQVQLVQSGAEVVQPGRSLRLSCAASGFTFSSYTMHWVRQAPGKGLEWVTFISYDGNNKYYADSVKGRFTISRDNSKNTLYLQMNSLRSEDTAVYYCARTGWLGPFDYWGQGTLVTVSSGGGGSGGGGSGGGGSGGGGSEIVLTQSPATLSLSPGERATLSCRASQSVGSSYLAWYQQKPGQAPRLLIYGAFSRATGIPARFSGSGSGTDFTLTISSLEPEDFAVYYCQQYGSSPWTFGQGTKVEIK
As for B2, in assay [1], the Kd was ~1 nM and the “limit of detection (LOD)” value came out at 2 ng/mL. In addition, in assay [2], the Kd is ~1 nM and the “limit of detection (LOD)” value stood at 2 ng/mL.

B3: anti-human CHI3L1 antibody (called "CHI3L1" or "FRG") (antibody, V domains shown)
VH: QVQLQQSGAELMKPGASVKISCRTTGYTFSSYWIEWVKQRPGHGLEWIGEILPGSGSTNCNEKFKGKATFTADTSSNTAYMQLSSLTSEDSAVYYCVRSDDYYDYWGQGTTLTVSS
VL: DVLMTQTPLSLPVSLGDQASISCRSSQTIVHSNGNTYLEWYLQKPGQSPKLLIYKVSNRFSGVPDRFSGSGSGTDFTLKISRVEAEDLGVYYCFQGSHVPPTFGGGTKLEIK
As to B3, in assay [2], the Kd is ~1 nM and the “limit of detection (LOD)” value was determined as 2 ng/mL.
